The source of these data is article PMC6423188, “HYNIC and DOMA conjugated radiolabeled bombesin analogs as receptor-targeted probes for scintigraphic detection of breast tumor” (EJNMMI Research, 2019).

The structures appear in SMILES notation. Where a SMILES comes first, the peptide text is derived from it.

Data set [1] in a line: physchem. The data set is classed as physicochemical. Conditions: pH 7.4. The essentials:
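HPLC-purified 99mTc-labeled peptides were shaken 2 min at room temperature between 1 mL n-octanol and 1 mL PBS (0.025 M, pH 7.4), then centrifuged to separate the phases. Each phase was γ-counted. logD was derived as log10 of the background-corrected octanol/buffer cpm ratio.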

Data set [2] in a line: physchem. The data set is classed as physicochemical. To be noted: buffer or solvent, pH 7.4. The procedure: In vitro radiochemical stability of ^99mTc-BN1/^99mTc-BN2/^99mTc-BN3 and ^99mTc-BN4, ^99mTc-BNS were assessed by incubating HPLC purified radiopeptides in phosphate buffer saline (PBS at pH 7.4) and freshly collected rat serum for 1–24 h at […]. Then, 90 μL of radiolabeled peptide ^99mTc-BN1/^99mTc-BN2/^99mTc-BN3/^99mTc-BN4/^99mTc-BNS solution were incubated under agitation at 37 °C with either 1.0 mL saline or fresh rat serum, and the mixtures were incubated at 37 °C for 24 h. Samples were periodically withdrawn from the mixture at 0, 2, 4, 6, 8, 12, and 24 h incubation period and analyzed by ITLC. In the case of rat serum, the aliquot was added to 100 μL 50% trifluoroacetic acid (TFA). After centrifugation (3000 rpm), the supernatant was analyzed by ITLC using acetone as the developing solvent; 10 μL of this mixture was taken at each time point, added to a strip ITLC whereby the percentage of ^99mTc-BN1/^99mTc-BN2/^99mTc-BN3/^99mTc-BN4/^99mTc-BNS was determined using gamma counter.
In vitro stability of ^99mTc-labeled bombesin analogs incubated at 37 °C with either freshly collected rat serum or normal saline were monitored up to 24 h. […] The new radiolabeled peptide conjugates were stable up to 24 h post labeling period at room temperature, with no observable degradation or transchelation to serum proteins.

The nature of a further data set: Blood clearance studies. The data set is classed as in vivo. To be noted: mouse, i.v. tail vein. The procedure: ^99mTc-labeled HYNIC/DOMA conjugated peptide analogs (1 mCi, 0.2 mL) were administered to well-hydrated mouse (n = 3) through tail vein and blood samples (20 μL each) were collected at preset time intervals (2, 5, 15, 30, 60, 90, and 120 min) in the tube. Each sample was weighed accurately, and associated radioactivity was counted in a gamma counter. The percentage injected activities per gram (%IA/g) in each blood sample at each time were determined, and the data were plotted as a function of the time interval to obtain the blood clearance curve of the radiopharmaceuticals.

A further data set is described as follows: in vitro. To be noted: rat, serum. The data set is classed as in vitro ADME. Summed up:
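^99mTc tracer incubated in fresh rat serum at 37 °C for 1 h, proteins precipitated with 10% trichloroacetic acid and centrifuged. Binding % = precipitate counts / (precipitate + supernatant counts) × 100; run in triplicate.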

In the data set “physchem [1]”, `CCCC[C@H](NC(=O)[C@@H](Cc1ccc(O)cc1)NC(=O)[C@H](Cc1c[nH]cn1)NC(=O)[C@H]1CCCN1C(=O)[C@@H](NC(=O)[C@H](C)NC(=O)[C@H](Cc1c[nH]c2ccccc12)NC(=O)[C@H](CCC(N)=O)NC(=O)CCCNC(=O)CN1CCNCCNCCNCC1)C(C)C)C(N)=O` [99mTc-BN4, ^99mTc-DOMA-GABA-[Pro^11Tyr^13Nle^14]-BN(7-14)NH2, metal not drawn] (HELM PEPTIDE1{[O=C(CN1CCNCCNCCNCC1)[*:2]].[O=C(CCCN[*:1])[*:2]].Q.W.A.V.[dP].H.[dY].[Nle].[am]}$$$$V2.0) came in with a logD of -2.7. In the data set “physchem [2]”, this compound had an amount remaining at 2 h of 95.5 ± 0.03%, a fraction remaining at 4 h of 95 ± 0.07%, a fraction remaining at 6 h of 93.5 ± 0.12% and a fraction remaining at 8 h of 92.5 ± 0.2%. Further, in “physchem [2]”, the amount remaining at 12 h was 90 ± 0.11% and the fraction remaining at 24 h was 88 ± 0.14%. The compound also came in with a t1/2 in blood in “Blood clearance studies” of 30 min. The fraction unbound at 1 h in the data set “in vitro” was 0.809.
